Results on 16 sequences are retold here after a protein production outcome set (Wang et al. 2014).

The series is described as follows: label from the status in PepcDB records.
Take “NMRQVLKTDRLVLEPQSMARFDQWFAMERQRDEAGHRDLTEDQAWLRLCARQGMWDAYACGFYYLLDPVSGEMRGEAGFQFRRRGFGPGFDNHPEAAWAVASAHQGRGLAAEAMQALLAHHDRSSGRQRVVALIARSNLPSLRLAERLGFR”: the protein production result is given as “failed”.
As for “MSLRQVIPIPSPPAKYLLPEVTVLDYGKKCVVIDLDETLVHSSFKPISNADFIVPVEIDGTIHQVYVLKRPHVDEFLQRMGQLFECVLFTASLAKYADPVADLLDRWGVFRARLFRESCVFHRGNYVKDLSRLGRELSKVIIVDNSPASYIFHPENAVPVQSWFDDMTDTELLDLIPFFEGLSREDDEGHHHHHH”, the entry is “not failed”.
As for “MSNWNLDNFDNLHSSLAESAYNSRPNSFPELFETDSVTEVKFSQPSEDNKGQITQGGTNLPNDGIVYLQPDKSLKSIDENVKVLIPDVNGGYHTEHYVTHSYQKGVLTDDKAGFNAYYLSDTEKIDSTTKHTYLAIRGSDGIGLDTLNDWVSNNAMFAVSNKYIPQAKLANKAMKEKIAELKGKAPGAIIDVTGHSLGTIVSSQAVVNLSYAELENVGQVVLFDGPDVSRSLEKMEGISAKKIQEAGKHVTYYVNPFDIVSMLNREKP”, the entry is “failed”; as for “MHQQIIKFWFEELTPQNWFENNPELDKHIASRFASVLEQAARCELFNWRDSAQGRLAEIIVLDQFSRNVYRNTPKAFAQDPLALALAQEAIRLGHDQELAPEQLSFLYMPFMHSESRLIHVEAEKLFRASGLENNYDFELKHKAIIDQFGRYPHRNAILGRESTPEELAFLQQPGSSF”, “not failed”.
The entry for “VVIQFYEERLTWHTGSGNGNGNTNSVNLGSSGGLGSVGGSGAGDDTAPGSVGTTGGGSNIDGGDEEDPEPASPIGSINQDENIKPDESSELDNGQPDADD” is “failed”.
Turning to “MQLIRGFHNLANYDALKKGCVLTIGNFDGVHIGHQNILARLCDQSLAIGLPSVVMLFEPQPREFFAKNSQNQTASALSNAVPARLMRLRDKLKYLAEMGVDFVLCVNFNQKFAKYSAEDFITELLVKKLKVRYLSVGDDFRFGIERRGNFEMLRNAGLTHRFAVEESHTHRFDTLRISSSLIRQALQQNDLALVENLLGKPYSIRGRVAHGNKLGRTIGFPTANIMLNRLVTPIQGVFIVEVQTIYGRFNGIANVGNRPTINGTKPLLEVHIFDFNNAIYHQIIEVIFIKKIRDELKFASFTLLKEQIEKDCQQAVEFFNQLPKTK”, the protein production result is “failed”.
With “MYNILLIFIAFLLVLLNAFFVSAEFGMVKLRATRIQAIKENYGLRGRILEQVHQNLDAYLSACQLGITLASLGLGWIGEPAFAELLGPLFVALGISSVHIVTISSFFIAFFLISFLHIVIGELMPKSIAIRQSELISIWTAVPLYWFYWIMYPAIWLLNTCSNFFLKLSGMDIKNEYEGFYSSEELKLILSGQHLQSELKEDEREILEHTLDLAELNVTEVMRPEDEMIIIDINEPFETIKDKILKYRYSRYPVYDSGTKEMIGVIHVKDLFADLLLQKNINTLKPYVRPVLKVSHKLPAMDLLRKFRAGMPHFALVYKHKSSLLGFVTLDNLLHILIGRIKDEFHKTHEDWVKNSDGTITTKGDCSLYSLERALDCDITLSPDEEELNTLYGLIITRHGKLPNEGEIIQFVEFDALIEKVQDSFITKIKVFPKIKN”, the protein production result is “failed”.
For “MLTTRLLISQRGRIAMKQVHLLTPVAGQLVPLESVHDPVFSQGMMGQGFGIEPTDGQVVAPISGKVTMVAASLHAIGFTGNNGLEVLVHLGIDTVELADRPPFKVNVQVGDTVEAGEKVAMMDLAAITSANKDTTVIMAVTNTADMVTKLTPELGEVRAGVVGAVVELKEHVAEASVVKGKGGKYDELATQIIAQVGGPVNVKSVIHCITRVRFYLKDEGQANDEAIRNLKGVIDVAKAGGQYQVVIGPAVTDVYDAIVGQLGAGFGDADASAVAMEKEANRLAWQKMTPWQKVKHGFSSLIGVITGSMIPVIGLLAASGILKGILSLLKNFNLVSATTPTYVIINAMGDSVFYFLPIFVGFTAAKKLGADPVIMGIIGGVLTYPAIVGMATTGKVTGHLLGMAINANFFGIPVHVASYTYSIFPMIAGAWLASKLEPWLKRVIPTVLRMIFVPLFEVVIISGAIIIILGPIITALSGALAAGIVAIYKLSPAISGLIIGGFYQVLVIFGLHWAIIPIVVNDITTTGHSYLNAIVSATMVAQGGAVLAIALKSKFANIKELAWPATISAFCGVTEPAMYGINLKYGRAFITASIGGAVGGFLTGLFNVNMWGFAGSLIGVTSFINPKGLDFSFYGFLIASAIDLIVAFTLTWMFGFSDNDVKNVKKAPEKKHLGQQVAN”, the protein production result was “failed”.
In the case of “MRNLTFLTRCKPLAASVLALMLLGGAAKSFANNDLPDLGTAAVNTFSLEKEMIYGDAYMRVIRSSAPMLNDPVLSQYLTELGNKLVAHATGVKTPFYFFLLQNDEINAFAFFGGHVAVHTGLFLNADNESELASVLGHEITHVTQRHLARSLEAQQKTGPATVAGLLGAILLTIAVPQAGMAALATTQAMATQSKINYTRLHEKEADRIGMQILVDAGFDPNASAEFFGKLASRYRFTTTPPQMLLTHPLPESRISEARDRAQQYPHRYVPDNLNFQLAKARIQVRFSSFSDDAVLSMFEKQLNKQTYGFKEAALYGKALALFRLKKFDESEKIVDELLKIDDNNLFYIDTKTDLLNERKDYAQAIKLLEAQRNLKPTSQVINANLANIYIEAGEPAKAIPLLEDMIFLDKQNQLPYQLLNLAYKKLGNPGMEYFSNAELMALGANYKGAIDQLNFAYRASEGNQLQLARIEARIRQFKQADREMDALKLEHHHHHH”, the protein production result was “failed”.
The entry for “MIIRIVQNIQRINKEGNAPLYISFYLGKEKVVIPCKLSVPTTKFDSKTGMLRGTNKEAKDINLIIERLKAKVNDILVKHRLKNLTLNKEAFMREYNNPSDFKSFHDFVASYMKTYSRRLEIGTFRHHKSCMRKFKEYCEGLQFHELTEDFLRDYLIYMKKTLCNADSTAQRNLSTIKIYVSAAIKKGYMENDPFKDFGVKRIKSNIDYLTEEELIKFISLYYDRRLPERLERTLGFFLFMCFTSLHISDARHVCLEQINNGILTYYRIKNRNCKPEAIKIPLSIPAFKIIEELQGKRKEGHLFTSLQCDQVVNRQIKEIASILEIKKKVSAKTGRHTFATIFLKKTKDVATLQKLLGHSNLKETMIYAHVLDESKQEGMQCFNSFAI” is “failed”.
The entry for “MTFGQSIGTCFAKYITFSGRASRPEYWYFFLFLLLGSIAATMLDALLFDAVTTTVETSDTSTSARIENTGPIAPIFSLAVFLPHLAVAFRRMHDTGRSGIYAILPFLLMLCAVLVLVFGVGIASSFAAGGSLDLLFTRATLLLLIPTLAVLFISPLLVLWWLTRPSQPGTNQYGPNPVRAVAS” is “failed”; for “MCIAIPGKMTAIVDENTATIDMGGICRDVNMALMGGAEESMIGKHFLVHVGYAISEISEEESEETMRLLKIMAGLEEIDSFE” it is “not failed”.
As for “MMFFQVHPHLTDLVIRTLQATWQQFPWLGQEDIALTLLVYPPPIPVNTGGALTAAEFWQYLIPGAHYRGDVPMYPASVVKLFYLVACHEWLHSGMLQPDAELERAMRDMIVDSSNDATSLVVDMLTGTTSGPVLPPEPFRTWQYQRNIVNRYFQSLGWPELTQINVNQKTWCEGPYGREQEFVGRDRQNANRLTTNATAKLIHSIVGGVAVSASASQGMMELMERSLDPELLAQDPENQVQGFLGEGLPPGAKLWSKAGLTSWVRHDAAYIELPDRCPYTLVVFMENSTASKNTEVLPFISRQIASGIPTLEGAGVL”, the entry is “failed”; as for “MTIMLTPMQTEEFRSYLTYTTKHYAEEKVKAGTWLPEDAQLLSKQVFTDLLPRGLETPHHHLWSLKLNEKDIVGWLWIHAEPEHPQQEAFIYDFGLYEPYRGKGYAKQALAALDQAARSMGIRKLSLHVFAHNQTARKLYEQTGFQETDVVMSKKL”, “not failed”.
As to “MHDALRAYIEKYASEKISDADFEEVKKAFTFKRYKKGQFLLQEGEVSKYTAFVLKGSMRQYSVDAKGTEHIIHFGIENWWVGDRESSTMLTPSNYNIDAIEDTEVLLTTSEDLQQLTAALPVIGKMVNTMNQRNFIASQKRIHDALSLTAEERYLELLKNHPDFLQRFPQTMLASYLGITAETYSRIRKKALK”, the protein production entry is recorded as “not failed”.
As for “MKKVLILFAHPRMEKSRANTTLLKHIPSAENITFHDLYELYPDFNIDVEAEKQLLLLHDIIIWQHPFYWYSCPPLMKQWIDMVLEFGWAYGPGGTALKDKIIFNAITTGGANATYNAGGHNRFTMQEYLRPFEQTAHLCKMIYFPPFLVQGSHRLTDEELQRFSQQYVILLTKMSQGNFEEAHMKDITFLNEICVKPR”, the entry is “failed”.
